This note sets out measurements from patent US20060057632A1 (KEIO UNIVERSITY, published 2006).

This experiment deals with T1, peptide TM1 (N'-TRVTSFLDWIHEQMERDLKT-C').
T1 construct: Peptide antigen coated on the plate
T1 peptide: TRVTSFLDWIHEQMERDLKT
The experiment can be described thus: binding implied by the name and by sequencing of ELISA positive clones (phage ELISA on coated TM1); not said in so many words.

B1: TM1 scFV (scFv)
scFv: ETTLTQSPSSLSASVGDRVTITCRTSQTINNYLNWYQQKPGKAPKVLIFGASRLQSGVPSRFSGSGSGTHFTLTITSLQPEDVATYYCQQSYGTPYTFGQGTKVEIKVDITSYNVYYTKLSLEQVQLQQWGAGLLKPSETLSLTCAIYNGSFGGYYWNWIRQPPGKGLEWIGEINQRESTNFNPSFKSRVTMSVDTSNNQFSLRLSSLTAADTAVYFCARGLYYDTTGFFDAFAVWGQGTTVTVSHLGLMGHHHHHH
Regarding B1, the binding result is on record as “binds”.
